Biological target: Hsp60 (chaperonin 60) of human Caco-2 cells (human) (UniProt P10809)
Test: cell-based or functional assay

Hsp60 (chaperonin 60) of human Caco-2 cells (human), sequence (P10809 27-573): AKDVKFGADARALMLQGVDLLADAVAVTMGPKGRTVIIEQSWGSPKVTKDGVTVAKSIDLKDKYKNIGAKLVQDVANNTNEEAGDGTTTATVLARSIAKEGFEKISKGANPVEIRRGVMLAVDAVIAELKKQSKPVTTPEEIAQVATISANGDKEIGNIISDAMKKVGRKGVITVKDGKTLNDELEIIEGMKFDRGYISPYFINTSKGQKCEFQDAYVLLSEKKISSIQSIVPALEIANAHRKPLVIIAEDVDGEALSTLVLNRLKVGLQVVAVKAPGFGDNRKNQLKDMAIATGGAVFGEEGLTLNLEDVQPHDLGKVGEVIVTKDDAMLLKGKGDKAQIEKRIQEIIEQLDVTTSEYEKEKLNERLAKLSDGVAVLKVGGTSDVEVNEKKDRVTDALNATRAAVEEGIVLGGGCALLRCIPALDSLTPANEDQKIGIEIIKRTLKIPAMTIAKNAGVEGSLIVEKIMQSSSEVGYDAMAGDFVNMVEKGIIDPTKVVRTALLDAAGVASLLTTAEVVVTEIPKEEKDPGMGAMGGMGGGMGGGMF

In the case of “Listeria adhesion protein (LAP) on L. monocytogenes F4244 (WT) bacteria (ligand)”, the IKK-β protein expression level, shRNA vector control Caco-2 cells infected with the WT strain, increase over uninfected is reported as 54% and the p65 protein expression level, shRNA vector control Caco-2 cells infected with the WT strain, increase over uninfected is reported as 62%.
